# Results as given in article PMC6971037, “Molecular basis for histidine N3-specific methylation of actin H73 by SETD3” (Cell Discovery, 2020).
# T1: SETD3 residues 20–494 (as labelled for the ITC titrations) (human, UniProt Q86TU7 20-494)
# T1 construct: also called SETD3_(20–494)
# T1 sequence (looked up): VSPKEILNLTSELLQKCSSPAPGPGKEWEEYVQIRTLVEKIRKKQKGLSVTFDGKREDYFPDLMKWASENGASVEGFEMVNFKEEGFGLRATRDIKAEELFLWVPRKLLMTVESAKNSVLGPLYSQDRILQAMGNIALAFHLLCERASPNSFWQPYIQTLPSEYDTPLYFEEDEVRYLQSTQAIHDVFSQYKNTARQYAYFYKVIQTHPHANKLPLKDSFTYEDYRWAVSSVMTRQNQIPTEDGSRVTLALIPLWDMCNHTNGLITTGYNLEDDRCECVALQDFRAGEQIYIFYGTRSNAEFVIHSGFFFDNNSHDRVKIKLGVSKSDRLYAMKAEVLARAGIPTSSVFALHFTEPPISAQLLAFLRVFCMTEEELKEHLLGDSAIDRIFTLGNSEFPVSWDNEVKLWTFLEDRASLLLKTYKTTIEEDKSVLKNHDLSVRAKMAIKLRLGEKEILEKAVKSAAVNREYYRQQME
# What was measured:
# [1] = biological target: T1, SETD3 residues 20–494 (as labelled for …); assay: ITC; SETD3 titrated with actin peptide in the presence of SFG (sinefungin); conditions: both partners purified
# [2] = biological target: T1, SETD3 residues 20–494 (as labelled for …); assay: ITC; SETD3 titrated with actin peptide in the presence of SAH; conditions: both partners purified
Binder,Kd [1] [nM],Kd [2] [nM]
"SKRGILTLKYPIEHGIVTNWDD (peptide, UniProt P60709 60-81, looked up, β-actin, residues 60-81; residues 66-81 were built in the structure; also called wild-type actin peptide) [β-actin peptide (60–81)]",5010,150
"SKRGILTLKYPIEAGIVTNWDD (peptide, UniProt P60709 60-81, looked up, β-actin peptide with H73A; The limits 60-81 are those of the wild-type peptide; also called H73A actin peptide; H73A mutant peptide) [H73A mutant actin peptide]",1000,810
